From patent US20090136936A1
“And” between values parts separate entries of the source, which are not always exact repeats. Identical values can stand only once. Like-named read-outs stand apart in the source and are kept apart here.

Columns and labels:
[1] = target: PA-FITC (PA antigen of Bacillus anthracis) (Bacillus anthracis) (UniProt P13423)
[2] = target: extracellular domain of glycosylated FcγRIIa (R&D systems), FITC-labeled (human) (UniProt P12318); experiment: flow cytometry of spheroplasts displaying the Fc, labelled with FcγRIIa-FITC
Chain of extracellular domain of glycosylated FcγRIIa (R&D systems), FITC-labeled (human) (P12318 34-217): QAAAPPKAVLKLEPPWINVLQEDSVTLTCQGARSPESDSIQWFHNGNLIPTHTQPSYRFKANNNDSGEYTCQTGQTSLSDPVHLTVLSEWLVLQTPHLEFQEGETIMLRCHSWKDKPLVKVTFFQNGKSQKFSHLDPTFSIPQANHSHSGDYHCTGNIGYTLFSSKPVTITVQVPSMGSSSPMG

[3] = target: Recombinant human FcγRI/CD64, extracellular domain, glycosylated (human) (UniProt P12314); experiment: flow cytometry of spheroplasts displaying the Fc clone, labelled with FcγRIa-FITC; the value is repeated on D00019 and D00020
Chain of Recombinant human FcγRI/CD64, extracellular domain, glycosylated (human) (P12314 16-292): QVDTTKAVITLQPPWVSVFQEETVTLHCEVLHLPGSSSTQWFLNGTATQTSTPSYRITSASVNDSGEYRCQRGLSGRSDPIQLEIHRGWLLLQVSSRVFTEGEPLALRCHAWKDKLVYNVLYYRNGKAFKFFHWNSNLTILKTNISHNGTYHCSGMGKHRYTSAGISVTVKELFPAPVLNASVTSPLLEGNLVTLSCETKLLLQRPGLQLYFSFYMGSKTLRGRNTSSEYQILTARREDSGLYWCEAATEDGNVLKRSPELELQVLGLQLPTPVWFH

[4] = target: Protein A-FITC (Staphylococcus aureus) (UniProt P38507)
[5] = target: Protein A-FITC (Staphylococcus aureus) (UniProt P38507); remark: listed apart in the source
[6] = target: Protein A-FITC (Staphylococcus aureus) (UniProt P38507); experiment: flow cytometry (FL1-Height) of spheroplasts labelled with Protein A-FITC; medium TB
[7] = target: Protein A-FITC (Staphylococcus aureus) (UniProt P38507); experiment: flow cytometry (FL1-Height) of E. coli spheroplasts labelled with Protein A-FITC; APEx displayed Fc [panel a]
[8] = target: Protein A-FITC (Staphylococcus aureus) (UniProt P38507); experiment: flow cytometry (FL1-Height) of spheroplasts labelled with Protein A-FITC; medium TB, 0.5M Trehalose
[9] = target: Protein A-FITC (Staphylococcus aureus) (UniProt P38507); experiment: flow cytometry (FL1-Height) of spheroplasts labelled with Protein A-FITC; medium 'TB, 0.5M Soribitol'
[10] = target: Protein A-FITC (Staphylococcus aureus) (UniProt P38507); experiment: flow cytometry (FL1-Height) of E. coli spheroplasts labelled with Protein A-FITC; no Fc expressed [panel a]
[11] = target: Protein A-FITC (Staphylococcus aureus) (UniProt P38507); experiment: flow cytometry (FL1-Height) of E. coli spheroplasts labelled with Protein A-FITC; one plasmid, no cJun(Cys) anchor co-expressed [panel b]
[12] = target: Protein A-FITC (Staphylococcus aureus) (UniProt P38507); experiment: flow cytometry (FL1-Height) of E. coli spheroplasts labelled with Protein A-FITC; Fc-cFos(Cys) co-expressed with the inner-membrane anchor NlpA-cJun(Cys)-FLAG; the same histogram stands in both panels [panels a and b]
[13] = target: Protein A-FITC (Staphylococcus aureus) (UniProt P38507); experiment: flow cytometry (FL1-Height) of E. coli spheroplasts labelled with Protein A-FITC; one plasmid, no cJun anchor co-expressed [panel b]
[14] = target: Protein A-FITC (Staphylococcus aureus) (UniProt P38507); experiment: flow cytometry (FL1-Height) of E. coli spheroplasts labelled with Protein A-FITC; Fc-cFos co-expressed with the inner-membrane anchor NlpA-cJun-FLAG [panel a]
[15] = target: Recombinant human FcγRI/CD64, extracellular domain, glycosylated (human) (UniProt P12314); experiment: SPR (BIAcore 3000), FcγRIa immobilized on CM-5

Chain of PA-FITC (PA antigen of Bacillus anthracis) (Bacillus anthracis) (P13423 30-764 limits assumed): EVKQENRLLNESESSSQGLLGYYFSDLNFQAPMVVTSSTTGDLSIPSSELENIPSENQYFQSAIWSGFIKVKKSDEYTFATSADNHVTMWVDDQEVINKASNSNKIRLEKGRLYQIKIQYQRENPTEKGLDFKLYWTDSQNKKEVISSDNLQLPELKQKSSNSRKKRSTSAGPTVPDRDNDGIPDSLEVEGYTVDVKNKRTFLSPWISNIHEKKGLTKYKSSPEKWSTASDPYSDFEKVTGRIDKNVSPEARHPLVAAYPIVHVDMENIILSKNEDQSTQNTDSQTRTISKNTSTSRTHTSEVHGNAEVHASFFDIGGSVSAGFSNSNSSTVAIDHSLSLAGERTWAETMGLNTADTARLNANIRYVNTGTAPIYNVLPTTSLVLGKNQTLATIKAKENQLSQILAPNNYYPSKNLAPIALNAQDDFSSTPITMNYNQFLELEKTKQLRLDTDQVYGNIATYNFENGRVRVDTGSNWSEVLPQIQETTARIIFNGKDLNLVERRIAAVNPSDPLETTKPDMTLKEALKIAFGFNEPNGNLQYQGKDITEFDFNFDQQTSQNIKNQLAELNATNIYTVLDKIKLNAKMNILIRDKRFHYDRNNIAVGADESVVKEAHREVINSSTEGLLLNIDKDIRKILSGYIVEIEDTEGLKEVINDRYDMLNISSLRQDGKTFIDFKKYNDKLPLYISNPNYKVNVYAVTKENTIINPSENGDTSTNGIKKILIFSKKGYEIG

## 26-10 IgG1 (anti-digoxin) (antibody)
[1]
  Mn (mean fluorescence intensity): 13.9

## 26-10 scAb (anti-digoxin)
[1]
  Mn (mean fluorescence intensity): 14.7

## 26-10 scFv (anti-digoxin)
[1]
  Mn (mean fluorescence intensity): 16.3

## Fc5 (E382V, M428I), aglycosylated Fc mutant (from UniProt P0DOX5 223-449)
[2]
  M (mean fluorescence intensity): 66.7

## Fc117 (E382V, M428I, Y436A), aglycosylated Fc mutant (from UniProt P0DOX5 223-449)
[3]
  FACS mean value: 391

## M18 scFv (PelB fused, anti-PA)
[4]
  M (mean fluorescence intensity): 40 and 62.9
[5]
  M (mean fluorescence intensity): 43

## M18.1 humanized IgG1 (antibody)
[1]
  Mn (mean fluorescence intensity): 164

## M18.1 humanized scAb
[1]
  Mn (mean fluorescence intensity): 277

## M18.1 humanized scFv
[1]
  Mn (mean fluorescence intensity): 313

## NlpA-Fc-His
[6]
  Mn (mean fluorescence intensity): 1080
[7]
  Mn (mean fluorescence intensity): 2410
[8]
  Mn (mean fluorescence intensity): 3130
[9]
  Mn (mean fluorescence intensity): 1290

## NlpA-cJun(Cys)-FLAG
[10]
  Mn (mean fluorescence intensity): 111

## PelB-Fc-cFos(Cys)-His
[11]
  Mn (mean fluorescence intensity): 879
[12]
  Mn (mean fluorescence intensity): 733

## PelB-Fc-cFos-His
[13]
  Mn (mean fluorescence intensity): 837
[14]
  Mn (mean fluorescence intensity): 244

## commercially available glycosylated human IgG1 (antibody)
[15]
  Kd: 0.018 µM
